Assay results taken from PMC8067865 (Molecules, 2021).

Tests used:
Test in all cases: native MS; 3 to 4.5 uM purified P dimers, buffer exchanged to ammonium acetate (GII.10 Vietnam 125 mM; GII.17 Kawasaki and GII.4 Saga 300 mM; GII.4 MI001 250 mM) pH 7.5; nano-ESI, positive ion mode, 25 °C; monomer-dimer
[1] = molecular target: GII.10 Vietnam 026 P domain (VP1 residues 224-538) (human norovirus GII.10 Vietnam 026)
[2] = molecular target: fully deamidated (iDiD) GII.4 Saga P domain (VP1 residues 225-530), N373 converted to iso-aspartate (human norovirus GII.4 Saga 2006) (UniProt B5BTR7)
[3] = molecular target: GII.4 MI001 P domain (VP1 residues 225-530), wildtype N373 (human norovirus GII.4 MI001)
[4] = molecular target: GII.17 Kawasaki 308 P domain (VP1 residues 225-530) (human norovirus GII.17 Kawasaki 308)
[5] = molecular target: partially deamidated GII.4 MI001 P domain (VP1 residues 225-530), approximately 64% deamidated at N373 (human norovirus GII.4 MI001)
[6] = molecular target: the molecule itself

With “GII.10 Vietnam 026 P domain (VP1 residues 224-538) (domain or fragment)” the stoichiometry N [1] was 2.

For “fully deamidated (iDiD) GII.4 Saga P domain (VP1 residues 225-530), N373 converted to iso-aspartate (from UniProt B5BTR7 225-530) (domain or fragment)”, the percent monomers [2] was 32%.

In the case of “GII.4 MI001 P domain (VP1 residues 225-530), wildtype N373 (domain or fragment)”, the stoichiometry N [3] is reported as 2.

“GII.17 Kawasaki 308 P domain (VP1 residues 225-530) (domain or fragment)” gave a stoichiometry N [4] of 2.

For “partially deamidated GII.4 MI001 P domain (VP1 residues 225-530), approximately 64% deamidated at N373 (domain or fragment)”, the percent monomers [5] was 16%.

B1: GII.4 Saga 2006 P domain (VP1 residues 225-530), wildtype N373 (NN) (domain or fragment)
chain: GPGSKPFTVPILTVEEMTNSRFPIPLEKLFTGPSGAFVVQPQNGRCTTDGVLLGTTQLSPVNICTFRGDVTHIAGSRNYTMNLASLNWNNYDPTEEIPAPLGTPDFVGKIQGLLTQTTKGDGSTRGHKATVYTGSAPFTPKLGSVQFSTDTENDFETHQNTKFTPVGVIQDGSTTHRNEPQQWVLPSYSGRNVHNVHLAPAVAPTFPGEQLLFFRSTMPGCSGYPNMDLDCLLPQEWVQHFYQEAAPAQSDVALLRFVNPDTGRVLFECKLHKSGYVTVAHTGQHDLVIPPNGYFRFDSWVNQFYTLAPM
notes: major capsid protein VP1 of human norovirus GII.4 Saga 2006, protruding (P) domain, VP1 residues 225-530; also called GII.4 Saga P dimer; wildtype GII.4 Saga P domains; source: E. coli BL21(DE3), purified (Ni-NTA, HRV 3C cleavage, SEC; cation exchange to separate pure N373 wildtype); not shown: two His-tags, N-terminal, cleaved
In the case of B1, the “stoichiometry N” value [6] is reported as 2.
